The supplement of paper PMC7125110
± gives the standard error. For some of these results: Variants at the floor of the assay were thinned out.

B1: glmS ribozyme (parent)
chain: AUAAAAGCGCCAGAACUACAGAAAUGUAGUUGACGAGGAGGAGGUUUAUCGAAUUUUCGGCGGAUGCCUCCAAA

Key:
Details in all cases: with glucosamine-6-phosphate
[1] = variants of: B1; experiment: kcat; higher = faster cleavage; RNA array
Procedure, shortened: (§1)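 Tiles bearing barcoded ribozyme variants, transcribed in situ by E. coli RNA polymerase on sequenced MiSeq chips, were imaged over ~14 h at 37 °C using a hybridised Cy3 probe. Glucosamine-6-phosphate was supplied at 40 μM to 10 mM in HEPES/KCl/Mg(OAc)2 buffer. kobs came from one- or two-exponential decay fits to normalised per-tile medians, and weighted Michaelis–Menten fits then provided kcat and KM.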

[2] = variants of: B1; experiment: KM; higher = weaker cofactor use; RNA array
Procedure, shortened: as §1

[3] = variants of: B1; experiment: self-cleavage kobs at 2500 uM GlcN6P; higher = faster cleavage; RNA array
Procedure, shortened: as §1

[4] = variants of: B1; experiment: self-cleavage kobs at 10000 uM GlcN6P; higher = faster cleavage; RNA array
Procedure, shortened: as §1

[5] = variants of: B1; experiment: self-cleavage kobs at 640 uM GlcN6P; higher = faster cleavage; RNA array
Procedure, shortened: as §1

[6] = variants of: B1; experiment: self-cleavage kobs at 40 uM GlcN6P; higher = faster cleavage; RNA array
Procedure, shortened: as §1

[7] = variants of: B1; experiment: self-cleavage kobs at 160 uM GlcN6P; higher = faster cleavage; RNA array
Procedure, shortened: as §1

Row | Variant | kcat [1] [s⁻¹] | KM [2] [µM] | self-cleavage kobs at 2500 uM GlcN6P [3] [s⁻¹] | self-cleavage kobs at 10000 uM GlcN6P [4] [s⁻¹] | self-cleavage kobs at 640 uM GlcN6P [5] [s⁻¹] | self-cleavage kobs at 40 uM GlcN6P [6] [s⁻¹] | self-cleavage kobs at 160 uM GlcN6P [7] [s⁻¹]
1 | U30G G66C | 0.000132 ± 1.5e-05 | 1620 ± 600 | 9.1e-05 ± 1.7e-05 | 0.00011 ± 1.6e-05 | – | – | –
2 | G29U G32U | 0.00125 ± 0.00041 | 8560 ± 4000 | 0.000243 ± 3e-05 | 0.000702 ± 7.1e-05 | 0.00011 ± 1.5e-05 | – | –
3 | A33U C70U | 0.000127 ± 1.1e-05 | 2760 ± 730 | 5.5e-05 ± 8.7e-06 | 0.0001 ± 6.7e-06 | 3.24e-05 ± 9.8e-06 | – | –
4 | A12C G13U C71G | 1.5e-05 ± 5.4e-06 | – | – | – | – | – | –
5 | G37A C68U | 6.89e-05 ± 7.5e-06 | 2690 ± 820 | 3.08e-05 ± 5.5e-06 | 5.51e-05 ± 6e-06 | 1.94e-05 ± 7.7e-06 | – | –
6 | U30A C58G G59A C70G | 2.1e-05 ± 2.6e-06 | – | – | – | – | – | –
7 | A15G C34G C68A | 2.44e-05 ± 5.8e-06 | – | – | – | – | – | –
8 | G32U U56C | 0.000177 ± 3.9e-05 | 2990 ± 1300 | 0.000105 ± 2.1e-05 | 0.000127 ± 2.4e-05 | 2.54e-05 ± 8.9e-06 | < 1e-05 | –
9 | G29C U45G | 0.000453 ± 2e-05 | 4250 ± 400 | 0.000159 ± 3.6e-05 | 0.000319 ± 3.3e-05 | 6.1e-05 ± 1.6e-05 | – | –
10 | C11G G43A | < 1e-05 | 525 ± 190 | – | < 1e-05 | < 1e-05 | < 1e-05 | < 1e-05
11 | C11U G40A | 0.000548 ± 0.00025 | – | 0.000128 ± 3e-05 | 0.000374 ± 6.8e-05 | 8.42e-05 ± 2.2e-05 | – | –
12 | U45A | 0.0731 ± 0.026 | 1680 ± 700 | 0.0529 ± 0.0042 | 0.0751 ± 0.0041 | 0.0167 ± 0.00063 | 0.00192 ± 4e-05 | 0.00532 ± 0.00022
13 | A12C U55A | 0.0159 ± 0.0051 | 888 ± 360 | 0.0112 ± 0.0021 | – | 0.00819 ± 0.0014 | 0.000742 ± 8.1e-05 | 0.00192 ± 0.00036
14 | U46A C50U C58A C71G | 1.07e-05 ± 3e-06 | – | – | – | – | – | –
15 | A15G U31G A39U | 0.00331 ± 0.0014 | – | 0.000869 ± 0.00014 | 0.00265 ± 0.00042 | 0.000575 ± 0.00013 | 3.3e-05 ± 1.1e-05 | 0.000104 ± 1.8e-05
16 | C10A G51U | < 1e-05 | – | – | < 1e-05 | – | < 1e-05 | –
17 | G44U C67U | 0.00551 ± 0.0015 | 727 ± 310 | 0.00417 ± 0.00073 | 0.00691 ± 0.001 | 0.00206 ± 0.00029 | 0.000365 ± 4e-05 | 0.000837 ± 0.00016
